# The domain aggregation screens of Martell et al. (2025)
# Experiment: soluble fraction after stress (log2 fold change); higher = more stays soluble; pooled small domains, quantitative proteomics
# Conditions: stress: pH 4
# Summary of the method: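 Custom libraries of small protein domains were pooled and measured with high-throughput quantitative proteomics after pH 4 stress. The read-out is the fold change in the amount of each domain that stays soluble after the acid stress, taken as a measure of aggregation propensity. Fold changes are on a log2 scale, and higher values mean more of the domain stayed soluble.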
row,Sequence,soluble fraction (log2)
1,HMSFSQNIGKRIREERLRLNLTQEKLAEDVNLSMAYIGQVERGDRSLTLDNLIIVAKRLGVTIDYLLS,-0.171
2,HMNSFGWESFVGEKGVTDTDLRPSGWIVIKDKRLFALTEGTFIEKGVSVEILSVEGNRIVVREIS,-0.711
3,HMVSPFQQQIADKVHNEIIAAKFNYDNATNENERLLAQLQAKKARELANQYGLDMSSYGADTTAERS,0.00762
4,HMRPPLEWGTHGEITTRTVASGYVRASARVRLWDGELQRMTATASTASDARASLQHRIAERLRFSEL,-0.0592
5,HMIPLPEDVASMRERLALTPEKADELFGLEDGSFARYEHGEEKVPFVVFQLLWLLGKYPHLIGELR,-0.801
6,HMHREITGSLAERNGRYTAILNLYDEDGKRRQKSIALGIPVKGNKRKAQAQLEELKRAYSLGLPQ,0.051
7,HMGMVEFEIGERDHSEDVSRKLFEAGLIEDASDFNQYMIEKKMDDHLQTGKYQIPKGATKDEILELIVR,-0.674
8,HMQMTTPQMVPLFTDLSVDDSASIIKDLERQAVPYQIKSDGAIIMVPKDKVTRLRMKLAESGLPK,0.402
9,HMSAVIGTATVTTSSGSLNLRESASLYSRVIRTIPRGATVDVLSRDTSWSRVRYAGSEGYVLNQYLTFQT,≥ 0.43
10,HMFRPRIEPGAKGSYVLEVQKRLAKLGYEHAGFDGVYGPGTERAIMQLQRDKGLPVTGIVDMRTYEALGLF,≥ 0.43
11,HMREITVEELYELEGIRIVGTIPGISAWVAESGRQMVFLVGQKVKGHDLLEVGESRVVLRKGDSVVNVLL,-1.21
12,HMNGEDVTDAIRLPQISQYASVVSAYPGVRAFLLEMQRDFARKGSVIMDGRDIGTVVLPEAEVKIFLT,0.278
13,HMQDLAKRWVEEFGDLLYKYTLPRVSDSGIAKDLVQETFLAAWRNIDNFKGEASEKNWLFTILKNKIIDH,-0.585
14,HMGAAFITSSKDNAINIRQSANTDSKVIETVTNGQILESNEKSGEWHKVTYYDNDIKKSFTGYVHEGQLK,-0.129
15,HMPDLQDTLYRLVPEDGSAIGNQSLREKFLSTAKDASDADFEAARDGLVEQGKLTKGKGRGGSVRRAEP,0.397
16,HMKKAITMGDIITVKELSEKIGIQVAEIIKKLMGLGILATINKELDYDTANVIASEFHIELERK,0.0872
17,HMQVLLTRREKEILKLIAEGLTSAEIGKRLFISTTTVDTHRKHLLEKLKAGNTAILIKTAVQLDLI,-0.223
18,HMLPLLEYLDPFTGKKTYTYLNPDTQHPIFTYYSYQDDKTGRTAYSYIDPLTGKAVNSDEPPMDILYD,-1.34
19,HMAITLEVAKKHLEMWLEAESEVAINQSYTIGGKSFTRANLAEIRKQIEYWSNKVAELENLA,-0.247

row,Sequence,soluble fraction (log2)
1,HMTVVHRQVHLQPDQGAFRAALYSHKAVLSEQTDDQGAINLEIRLPESDFLRLLNSSGLKLQDLVP,-0.512
2,HMKELAADFSRRIINARTSKGWSQADLGQRMAETINVIKSAESGKPPTDAVVKKFETVLGVILM,0.22
3,HMQASIPQSQKDALAKELQALPPHGRNRVLSTFRQQFNISSEKISEFITTPEHLSFIRSKIAEVESDS,-0.529
4,HMKQDYYSILGVMRDASQEEIKRAYLDAAQRLHPDRNTSAGDTEMFLDVQQAYEVLSNPKRRAQYDATLP,0.169
5,HMQADKYKSYTATDFLKDKDFLRWQLFNGEEDMLFWGRVIEEYPALRSRVEEGIVLYKDNIR,-1.18
6,HMAVFRVGDKVKSMEGMIGEVRGINGRLIQVATPYGLRDYYPHQITKVENPLAAAPAPLNEEA,0.0157
7,HMSIGPQMAGRRVLSGDLIARLEAFEGTVVLGRGVAREDALLIATQAGHVRWEPASRRLWVDSTA,-0.0304
8,HMQSREISYSDFVASVERGEVATVILDGENIRFKGGDNVEYVTVRPADTNVTDLLIENQVVVRAEK,-0.824
9,HMGFDTSMNKYTIDDLLKLLELGSNPSQAEIVNKITNFNTIFVDNSGVIQFLNNIQDKLLDNFK,-0.95
10,HMSETEWGEIYRKVMAAGLIPARSVRERLLALPSIEPLLQAAEAAGSKGMLDETLLDSLLSKT,-0.539
11,HMKSIETVAELVAELKKLNPNAKISNIDGTYTLEEDINTITLPKDFKYDNNLGINNKIDDFTPYISLDVKA,-0.132
12,HMSEVPAAVLVTGGSINLREAPSTDATIIDVAQVGEKMTVLAEKNSWYQVSRGGRNVWVASWVVDPLT,-0.566
13,HMNEGETLYRLRAGDGRARLDKFLAAALPDISRTRFKGLIESGHVRVGGETITEPAYRVKSEAEVELTVPE,0.0187
14,HMAPASADQLIDQLNEKVKAKDDKGVAALLTAAQTKMAELAQKDPKEAQAYVAKLQQWMQSNSENIKAALK,0.204
15,HMNSKMTYSELITSMENKEVESVKISSSGDVASVKLKNSKTEKEVKIPSLDSFMTYTEQYLKTGEITLEE,-0.0537
16,HMLDLVSIGKRIKAERQKNGLTQEALAERIEVSAHYVYELERGLKAMSVPILLRMSEVLHTSTDYLLF,-0.48
17,HMTAKQDLDSIYRHLVATRKSIAENPKMVSSIDDPQALIKMLDYAIQYFYTDKRDEALAVLEKNEEQLNFR,-0.206
18,HMAHYPGKVNNELVEFIRSEQRKTPHMTLTGLNRKLQRTYDLTLSESTVRKLVEAETILPLAREPD,0.217
19,HMQKIEKVDYGTFLKMIENGEIDQVNLTEKKISFTTDKDAETVYETGRVEDPNIVDRLYQADVEFTQEI,-0.884
